Experimental data reported in paper PMC12310515 (2025).
Like-named read-outs stand apart in the source and are kept apart here.

B3: KIR2DS1 (SPR protein) (receptor)
chain: HEGVHRKPSLLAHPGRLVKSEETVILQCWSDVMFEHFLLHREGMFNDTLRLIGEHHDGVSKANFSISRMKQDLAGTYRCYGSVTHSPYQLSAPSDPLDIVIIGLYEKPSLSAQPGPTVLAGENVTLSCSSRSSYDMYHLSREGEAHERRLPAGTKVNGTFQANFPLGPATHGGTYRCFGSFRDSPYEWSKSSDPLLVSVTGNPSNSWPSPTEPSSETGNPRHLH
B4: KIR2DL1 (residues 27-221) (domain or fragment)
chain: RKPSLLAHPGRLVKSEETVILQCWSDVMFEHFLLHREGMFNDTLRLIGEHHDGVSKANFSISRMTQDLAGTYRCYGSVTHSPYQVSAPSDPLDIVIIGLYEKPSLSAQLGPTVLAGENVTLSCSSRSSYDMYHLSREGEAHERRLPAGPKVNGTFQADFPLGPATHGGTYRCFGSFHDSPYEWSKSSDPLLVSVT
modifications: N-linked glycan on N67 (N-acetylglucosamine-fucose core seen in the structures)

Experiments:
Assay in all cases: SPR
SEN-08 [1] = biological target: T1, SEN-08 (P. falciparum pfSN01)
[2] = biological target: one of the six Kenyan RIFINs (pfKE01) that bound to LILRB1
[3] = biological target: B4
KIR2DS1 (SPR protein) = biological target: B3
KEN-02 [4] = biological target: T2, KEN-02 (P. falciparum pfKE01)
SEN-08 [5] = biological target: T1, SEN-08; remark: listed apart in the source
KEN-06 [6] = biological target: T3, KEN-06 (P. falciparum pfKE01)
KEN-04 [7] = biological target: T4, KEN-04 (P. falciparum pfKE01)
SEN-01 [8] = biological target: T5, SEN-01 (P. falciparum pfSN01)
SEN-12 [9] = biological target: T6, SEN-12 (P. falciparum pfSN01)
KEN-02 [10] = biological target: T2, KEN-02; remark: listed apart in the source
KEN-06 [11] = biological target: T3, KEN-06; remark: listed apart in the source
KEN-04 [12] = biological target: T4, KEN-04; remark: listed apart in the source
SEN-01 [13] = biological target: T5, SEN-01; remark: listed apart in the source
SEN-12 [14] = biological target: T6, SEN-12; remark: listed apart in the source

B1: LILRB1 (receptor)
chain: GHLPKPTLWAEPGSVITQGSPVTLRCQGGQETQEYRLYREKKTALWITRIPQELVKKGQFPIPSITWEHAGRYRCYYGSDTAGRSESSDPLELVVTGAYIKPTLSAQPSPVVNSGGNVILQCDSQVAFDGFSLCKEGEDEHPQCLNSQPHARGSSRAIFSVGPVSPSRRWWYRCYAYDSNSPYEWSLPSDLLELLVLGVSKKPSLSVQPGPIVAPEETLTLQCGSDAGYNRFVLYKDGERDFLQLAGAQPQAGLSQANFTLGPVSRSYGGQYRCYGAHNLSSEWSAPSDPLDILIAGQFYDRVSLSVQPGPTVASGENVTLLCQSQGWMQTFLLTKEGAADDPWRLRSTYQSQKYQAEFPMGPVTSAHAGTYRCYGSQSSKPYLLTHPSDPLELVVSGPSGGPSSPTTGPTSTSGPEDQPLTPTGSDPQSGLGRHLGVVIGILVAVILLLLLLLLLFLILRHRRQGKHWTSTQRKADFQHPAGAVGPEPTDRGLQWRSSPAADAQEENLYAAVKHTQPEDGVEMDTRSPHDEDPQAVTYAEVKHSRPRREMASPPSPLSGEFLDTKDRQAEEDRQMDTEAAASEAPQDVTYAQLHSLTLRREATEPPPSQEGPSPAVPSIYATLAIH
- Kd (SEN-08 [1]): 5.5 µM
- Kd [2]: 2.6 µM

B2: KEN-01 (mFc-tagged, SPR) (natural protein)
chain: AKGAAAAEAARIPAAIDAVIKGIVTKFGVSTESVQGLKSLFTANTYNDVTKIARAINEQYNPSSCLTGGSGADNSICPWAMENFFAARKIPGFIQREAVSMNDVIEKTVKTIVSDAPKTAETAAKKATEG
- Kd [3]: 0.1 µM
- Kd (KIR2DS1 (SPR protein)): 0.3 µM

Binder: B3
- Kd (KEN-02 [4]): 2.6 µM
- Kd (SEN-08 [5]): 2.1 µM
- Kd (KEN-06 [6]): 0.9 µM
- Kd (KEN-04 [7]): 5.4 µM
- Kd (SEN-01 [8]): 1.1 µM
- Kd (SEN-12 [9]): 0.5 µM

Binder: B4
- Kd (KEN-02 [10]): 2.2 µM
- Kd (SEN-08 [1]): 3.5 µM
- Kd (KEN-06 [11]): 0.4 µM
- Kd (KEN-04 [12]): 2 µM
- Kd (SEN-01 [13]): 3.4 µM
- Kd (SEN-12 [14]): 0.4 µM
